Source: article PMC3485694 (Structure (London, England : 1993), 2012)

B1: human HisRS Δ1–53_507–509 (domain or fragment, UniProt P12081 54-506, looked up)
chain: FVLKTPKGTRDYSPRQMAVREKVFDVIIRCFKRHGAEVIDTPVFELKETLMGKYGEDSKLIYDLKDQGGELLSLRYDLTVPFARYLAMNKLTNIKRYHIAKVYRRDNPAMTRGRYREFYQCDFDIAGNFDPMIPDAECLKIMCEILSSLQIGDFLVKVNDRRILDGMFAICGVSDSKFRTICSSVDKLDKVSWEEVKNEMVGEKGLAPEVADRIGDYVQQHGGVSLVEQLLQDPKLSQNKQALEGLGDLKLLFEYLTLFGIDDKISFDLSLARGLDYYTGVIYEAVLLQTPAQAGEEPLGVGSVAAGGRYDGLVGMFDPKGRKVPCVGLSIGVERIFSIVEQRLEALEEKIRTTETQVLVASAQKKLLEERLKLVSELWDAGIKAELLYKKNPKLLNQLQYCEEAGIPLVAIIGEQELKDGVIKLRSVTSREEVDVRREDLVEEIKRRTGQPL
B2: human HisRS Δ507–509 (domain or fragment, UniProt P12081 1-506, looked up)
chain: MAERAALEELVKLQGERVRGLKQQKASAELIEEEVAKLLKLKAQLGPDESKQKFVLKTPKGTRDYSPRQMAVREKVFDVIIRCFKRHGAEVIDTPVFELKETLMGKYGEDSKLIYDLKDQGGELLSLRYDLTVPFARYLAMNKLTNIKRYHIAKVYRRDNPAMTRGRYREFYQCDFDIAGNFDPMIPDAECLKIMCEILSSLQIGDFLVKVNDRRILDGMFAICGVSDSKFRTICSSVDKLDKVSWEEVKNEMVGEKGLAPEVADRIGDYVQQHGGVSLVEQLLQDPKLSQNKQALEGLGDLKLLFEYLTLFGIDDKISFDLSLARGLDYYTGVIYEAVLLQTPAQAGEEPLGVGSVAAGGRYDGLVGMFDPKGRKVPCVGLSIGVERIFSIVEQRLEALEEKIRTTETQVLVASAQKKLLEERLKLVSELWDAGIKAELLYKKNPKLLNQLQYCEEAGIPLVAIIGEQELKDGVIKLRSVTSREEVDVRREDLVEEIKRRTGQPL

Molecular target: the molecule itself
Assay: crystal structure

| Protein | stoichiometry N | binding result |
| --- | --- | --- |
| B1 | 2 | – |
| B2 | – | binds |
